Key:
Test in all cases: cell-based or functional assay
human GIP receptor = target: T1, human GIP receptor (human, UniProt P48546 22-466)
T1 sequence (looked up): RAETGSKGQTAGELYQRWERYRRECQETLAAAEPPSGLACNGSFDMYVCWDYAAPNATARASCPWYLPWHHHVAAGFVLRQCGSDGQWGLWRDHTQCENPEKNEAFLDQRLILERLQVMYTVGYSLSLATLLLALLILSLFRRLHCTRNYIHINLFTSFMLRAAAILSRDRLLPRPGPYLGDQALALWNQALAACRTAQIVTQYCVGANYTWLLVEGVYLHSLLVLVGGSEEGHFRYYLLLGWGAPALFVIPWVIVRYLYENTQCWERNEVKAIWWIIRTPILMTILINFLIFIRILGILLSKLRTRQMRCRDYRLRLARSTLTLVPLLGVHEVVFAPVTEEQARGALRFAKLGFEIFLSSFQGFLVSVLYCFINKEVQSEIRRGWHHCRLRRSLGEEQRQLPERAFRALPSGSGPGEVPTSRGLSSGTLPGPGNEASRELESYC

human GLP-1 receptor = human GLP-1 receptor (human, UniProt P43220 24-463)
human glucagon receptor = human glucagon receptor (human, UniProt P47871 26-477)

Binder | cAMP EC50 (1.0% HSA) (human GIP receptor) | cAMP EC50 (1.0% HSA) (human GLP-1 receptor) | cAMP EC50 (1.0% HSA) (human glucagon receptor) | cAMP Emax (1.0% HSA) (human GIP receptor) | cAMP Emax (1.0% HSA) (human GLP-1 receptor)
YXEGTXTSDXSIXLDXKAQXEFIXXLIEGGPSSGAPPPSK (Y-Aib-EGT-αMeF(2F)-TSD-4Pal-SI-αMeL-LD-Orn-K((2-[2-(2-Amino-ethoxy)-ethoxy]-acetyl)2-(γ-Glu)-(10-(4-carboxyphenoxy)decanoyl))AQ-Aib-EFI-(D-Glu)-αMeY-LIEGGPSSGAPPPSK((2-[2-(2-Amino-ethoxy)-ethoxy]-acetyl)2-(γ-Glu)-(10-(4-carboxyphenoxy)decanoyl))-NH2) [Example 273] | 0.318 nM | 40.9 nM | > 9950 nM | – | –
YXEGTXTSDXSIXLDXIAQXKFIXXLIEGGPSSGAPPPSK (Y-Aib-EGT-αMeF(2F)-TSD-4Pal-SI-αMeL-LD-Orn-IAQ-Aib-K((2-[2-(2-Amino-ethoxy)-ethoxy]-acetyl)2-(y-Glu)-(10-(4-carboxyphenoxy)decanoyl))FI-(D-Glu)-αMeY-LIEGGPSSGAPPPSK((2-[2-(2-Amino-ethoxy)-ethoxy]-acetyl)2-(γ-Glu)-(10-(4-carboxyphenoxy)decanoyl))-NH2) [Example 276] | 1.97 nM | 63.6 nM | > 9950 nM | 91.4% | –
YXEGTXTSDXSIXLDXIAQXKFIXXLIEGGPSSGAPPPSK (Y-Aib-EGT-αMeF(2F)-TSD-4Pal-SI-αMeL-LD-Orn-IAQ-Aib-K(2-[2-(2-Amino-ethoxy)-ethoxy]-acetyl)2-(γ-Glu)-(11-(4-carboxyphenoxy)undecanoyl)FI-(D-Glu)-αMeY-LIEGGPSSGAPPPSK((2-[2-(2-Amino-ethoxy)-ethoxy]-acetyl)2-(γ-Glu)-(11-(4-carboxyphenoxy)undecanoyl)-NH2)) [Example 288] | 0.48 nM | 17.1 nM | > 9950 nM | 85.2% | 123%
YXEGTXTSDXSIXLDXKAQXEFIXXLIEGGPSSGAPPPSK (Y-Aib-EGT-αMeF(2F)-TSD-4Pal-SI-αMeL-LD-Orn-K((2-[2-(2-Amino-ethoxy)-ethoxy]-acetyl)2-(γ-Glu)-(11-(4-carboxyphenoxy)undecanoyl))AQ-Aib-EFI-(D-Glu)-αMeY-LIEGGPSSGAPPPSK((2-[2-(2-Amino-ethoxy)-ethoxy]-acetyl)2-(γ-Glu)-(11-(4-carboxyphenoxy)undecanoyl))-NH2) [Example 285] | 1.28 nM | 136 nM | > 9950 nM | – | –
YXEGTXTSDXSIXLDXKAQXEFIXXLIEGGPSSGAPPPSK (Y-Aib-EGT-αMeF(2F)-TSD-OMeY-SI-αMeL-LD-Orn-K((2-[2-(2-Amino-ethoxy)-ethoxy]-acetyl)2-(γ-Glu)-CO-(CH2)10-CH3)AQ-Aib-EFI-(D-Glu)-αMeY-LIEGGPSSGAPPPSK((2-[2-(2-Amino-ethoxy)-ethoxy]-acetyl)2-(γ-Glu)-CO-(CH2)10-CH3)-NH2) [Example 291] | 0.833 nM | 7.43 nM | > 9950 nM | – | –
YXEGTXTSDXSIXLDXIAQXEFIKXLIKGGPSSGAPPPS (Y-Aib-EGT-αMeF(2F)-TSD-hTyr-SI-αMeL-LD-Orn-IAQ-Aib-EFIK((2-[2-(2-Amino-ethoxy)-ethoxy]-acetyl)2-(γ-Glu)-CO-(CH2)12-CO2H)-αMeY-LIK((2-[2-(2-Amino-ethoxy)-ethoxy]-acetyl)2-(γ-Glu)-CO-(CH2)12-CO2H)GGPSSGAPPPS-NH2) [Example 270] | 3.8 nM | 32.6 nM | > 9950 nM | 80.9% | –
YXEGTXTSDXXIXLDXIAQXEFIKXLIKGGPSSGAPPPS (Y-Aib-EGT-αMeF(2F)-TSD-4Pal-αMeS-I-αMeL-LD-Orn-IAQ-Aib-EFIK((2-[2-(2-Amino-ethoxy)-ethoxy]-acetyl)2-(γ-Glu)-(10-(4-carboxyphenoxy)decanoyl))-αMeY-LIK((2-[2-(2-Amino-ethoxy)-ethoxy]-acetyl)2-(γ-Glu)-(10-(4-carboxyphenoxy)decanoyl))GGPSSGAPPPS-NH2) [Example 306] | 1.12 nM | 18.2 nM | > 9950 nM | – | –
YXEGTXTSDYXIXLDXIAQXEFIKXLIKGGPSSGAPPPS (Y-Aib-EGT-αMeF(2F)-TSDY-αMeS-I-αMeL-LD-Orn-IAQ-Aib-EFIK((2-[2-(2-Amino-ethoxy)-ethoxy]-acetyl)2-(γ-Glu)-CO-(CH2)12-CO2H)-αMeY-LIK((2-[2-(2-Amino-ethoxy)-ethoxy]-acetyl)2-(γ-Glu)-CO-(CH2)12-CO2H)GGPSSGAPPPS-NH2) [Example 303] | 2 nM | 50.4 nM | > 9950 nM | 89.8% | –
YXEGTXTSDXSIXLDXIAQXKFIXXLIKGGPSSGAPPPS (Y-Aib-EGT-αMeF(2F)-TSD-4Pa1-SI-αMeL-LD-Orn-IAQ-Aib-K((2-[2-(2-Amino-ethoxy)-ethoxy]-acetyl)2-(γ-Glu)-(10-(4-carboxyphenoxy)decanoyl))FI-(D-Glu)-αMeY-LIK((2-[2-(2-Amino-ethoxy)-ethoxy]-acetyl)2-(γ-Glu)-(10-(4-carboxyphenoxy)decanoyl))GGPSSGAPPPS-NH2) [Example 275] | 0.926 nM | 33.5 nM | > 9950 nM | – | –
YXEGTXTSDXSIXLDXIAQXEFIKXLIKGGPSSGAPPPS (Y-Aib-EGT-αMeF(2F)-TSD-OMeY-SI-αMeL-LD-Orn-IAQ-Aib-EFIK((2-[2-(2-Amino-ethoxy)-ethoxy]-acetyl)2-(γ-Glu)-(10-(4-carboxyphenoxy)decanoyl))-αMeY-LIK((2-[2-(2-Amino-ethoxy)-ethoxy]-acetyl)2-(γ-Glu)-(10-(4-carboxyphenoxy)decanoyl))GGPSSGAPPPS-NH2) [Example 279] | 3.21 nM | 36.6 nM | > 9950 nM | – | –
YXEGTXTSDXSIXLDXIAQXKFIXXLIKGGPSSGAPPPS (Y-Aib-EGT-αMeF(2F)-TSD-4Pal-SI-αMeL-LD-Orn-IAQ-Aib-K(2-[2-(2-Amino-ethoxy)-ethoxy]-acetyl)2-(γ-Glu)-(11-(4-carboxyphenoxy)undecanoyl)FI-(D-Glu)-αMeY-LIK((2-[2-(2-Amino-ethoxy)-ethoxy]-acetyl)2-(γ-Glu)-(11-(4-carboxyphenoxy)undecanoyl)GGPSSGAPPPS-NH2)) [Example 287] | 3.76 nM | 83.8 nM | > 9950 nM | – | –
YXEGTXTSDXSIXLDXKAQXKFIXXLIEGGPSSGAPPPS (Y-Aib-EGT-αMeF(2F)-TSD-2Nal-SI-αMeL-LD-Orn-K((2-[2-(2-Amino-ethoxy)-ethoxy]-acetyl)2-(γ-Glu)-(10-(4-carboxyphenoxy)decanoyl))AQ-Aib-K((2-[2-(2-Amino-ethoxy)-ethoxy]-acetyl)2-(γ-Glu)-(10-(4-carboxyphenoxy)decanoyl))FI-(D-Glu)-αMeY-LIEGGPSSGAPPPS-NH2) [Example 281] | 1.87 nM | 22.4 nM | > 9950 nM | – | –
YXEGTXTSDXSIXLDXKAQXEFIXXLIKGGPSSGAPPPS (Y-Aib-EGT-αMeF(2F)-TSD-OMeY-SI-αMeL-LD-Orn-K((2-[2-(2-Amino-ethoxy)-ethoxy]-acetyl)2-(γ-Glu)-CO-(CH2)10-CH3)AQ-Aib-EFI-(D-Glu)-αMeY-LIK((2-[2-(2-Amino-ethoxy)-ethoxy]-acetyl)2-(γ-Glu)-CO-(CH2)10-CH3)GGPSSGAPPPS-NH2) [Example 290] | 0.878 nM | 12.1 nM | > 9950 nM | – | –
YXEGTXTSDXSIXLDXIAQXKFIXXLIKGGPSSGAPPPS (Y-Aib-EGT-αMeF(2F)-TSD-OMeY-SI-αMeL-LD-Orn-IAQ-Aib-K((2-[2-(2-Amino-ethoxy)-ethoxy]-acetyl)2-(γ-Glu)-(10-(4-carboxyphenoxy)decanoyl))FI-(D-Glu)-αMeY-LIK((2-[2-(2-Amino-ethoxy)-ethoxy]-acetyl)2-(γ-Glu)-(10-(4-carboxyphenoxy)decanoyl))GGPSSGAPPPS-NH2) [Example 280] | 4.84 nM | 49.9 nM | > 9950 nM | 88.5% | –

From patent US20230265151A1, “GIP/GLP1 CO-AGONIST COMPOUNDS” (priority 2020, published 2023)
